{"source": "paper PMC3062965", "about": "(Apoptosis : an international journal on programmed cell …, 2010)", "target": "full-length RAIDD (1-199) (human, UniProt P78560 1-199)", "sequence (P78560 whole entry)": "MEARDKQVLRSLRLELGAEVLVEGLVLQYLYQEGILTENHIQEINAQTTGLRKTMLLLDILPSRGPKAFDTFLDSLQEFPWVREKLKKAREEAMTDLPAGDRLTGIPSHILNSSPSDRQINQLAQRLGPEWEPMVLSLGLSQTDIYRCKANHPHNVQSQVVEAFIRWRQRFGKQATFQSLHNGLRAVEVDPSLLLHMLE", "assay": "SEC-MALS", "note": "Several values for one entry are separate records, joined by “and”; a condition that tells them apart may be missing. Equal values may be shown once."}
{"binder": "PIDD DD (777-883) (domain or fragment, human, UniProt Q9HB75 777-883, looked up) LNLGDAETGFLTQSNLLSVAGRLGLDWPAVALHLGVSYREVQRIRHEFRDDLDEQIRHMLFSWAERQAGQPGAVGLLVQALEQSDRQDVAEEVRAVLELGRRKYQDS", "values": [{"measurement": "stoichiometry N", "result": "7 RAIDD per complex and 5 PIDD DD per complex"}]}
